According to PMC8617483, “Structure of the ATP synthase from Mycobacterium smegmatis provides targets for treating tuberculosis” (Proceedings of the National Academy of Sciences of the …, 2021):

B1: ATP synthase bδ-subunit from Mycobacterium smegmatis (natural protein, UniProt A0R203 1-445, looked up)
chain: MSIFIGQLIGFAVIAFIIVKWVVPPVRTLMRNQQEAVRAALAESAEAAKKLADADAMHAKALADAKAESEKVTEEAKQDSERIAAQLSEQAGSEAERIKAQGAQQIQLMRQQLIRQLRTGLGAEAVNKAAEIVRAHVADPQAQSATVDRFLSELEQMAPSSVVIDTAATSRLRAASRQSLAALVEKFDSVAGGLDADGLTNLADELASVAKLLLSETALNKHLAEPTDDSAPKVRLLERLLSDKVSATTLDLLRTAVSNRWSTESNLIDAVEHTARLALLKRAEIAGEVDEVEEQLFRFGRVLDAEPRLSALLSDYTTPAEGRVALLDKALTGRPGVNQTAAALLSQTVGLLRGERADEAVIDLAELAVSRRGEVVAHVSAAAELSDAQRTRLTEVLSRIYGRPVSVQLHVDPELLGGLSITVGDEVIDGSIASRLAAAQTGLPD
notes: ATP synthase subunit bδ (natural fusion of a b-domain, a linking domain and a δ-domain), M. smegmatis mc2 155, encoded in the entire atp operon; modelled in substate S1a (PDB 7NJK): 1-162, 169-444; One copy in the enzyme; part of the peripheral stalk; also called fused bδ-subunit
B3: ATP synthase a-subunit from Mycobacterium smegmatis (natural protein, UniProt A0R206 1-252, looked up)
chain: MLAAEEGGAAIHVGHHTLVFELFGMTFNGDTILATAVTAVIVIALAFYLRAKVTSTGVPSGVQLFWEALTIQMRQQIEGSIGMKIAPFVLPLSVTIFVFILISNWLAVLPLQYGGADGAAAELYKAPASDINFVLALALFVFVCYHAAGIWRRGIVGHPIKVVKGHVAFLAPINIVEELAKPISLALRLFGNIFAGGILVALIAMFPWYIQWFPNAVWKTFDLFVGLIQAFIFSLLTILYFSQSMELDHEDH
notes: ATP synthase subunit a, M. smegmatis mc2 155, encoded in the entire atp operon; modelled in substate S1a (PDB 7NJK): 10-247; One copy in the enzyme
B5: ATP synthase ε-subunit from Mycobacterium smegmatis (natural protein, UniProt A0R1Z9 1-121, looked up)
chain: MADLNVEIVAVERELWSGPATFVFTRTTAGEIGILPRHIPLVAQLVDDAMVRVEREGEDDLRIAVDGGFLSVTEETVRILVENAQFESEIDADAAKEDAASDDERTAAWGRARLRALGQID
notes: ATP synthase subunit ε, M. smegmatis mc2 155, encoded in the entire atp operon; modelled in substate S1a (PDB 7NJK): 3-120; One copy in the enzyme
B6: ATP synthase γ-subunit from Mycobacterium smegmatis (natural protein, UniProt A0R201 1-307, looked up)
chain: MAATLRELRGRIRSAGSIKKITKAQELIATSRIAKAQARVEAARPYAAEITNMLTELAGASALDHPLLVERKQPKRAGVLVVSSDRGLCGAYNANVLRRAEELFSLLRDEGKDPVLYVVGRKALGYFSFRQRTVVESWTGFSERPTYENAREIADTLVNAFMAGADDEGDDAGADGILGVDELHIVFTEFRSMLSQTAVARRAAPMEVEYVGEVETGPRTLYSFEPDPETLFDALLPRYIATRVYAALLEAAASESASRRRAMKSATDNADDLIKALTLAANRERQAQITQEISEIVGGANALAGSK
notes: ATP synthase subunit γ, M. smegmatis mc2 155, encoded in the entire atp operon; modelled in substate S1a (PDB 7NJK): 3-213, 220-304; One copy in the enzyme

Legend:
Assay in all cases: cryo-EM structure; single particles of the ATP synthase purified in detergent and inhibited with bedaquiline (25 μM); 63 maps and 27 models, resolutions 2.11 to 4.15 Å; states S1 to S3 and substates
[1] = biological target: T1, ATP synthase α-subunit from Mycobacterium smegmatis (Mycobacterium smegmatis, UniProt A0R202 1-548); conditions: both partners purified
T1 construct: ATP synthase subunit α, M. smegmatis mc2 155, encoded in the entire atp operon; modelled in substate S1a (PDB 7NJK): αE 5-21, 29-406, 411-521; αTP 5-21, 29-406, 411-521; αDP 6-406, 413-521, 527-545; Three copies in the enzyme (α3β3); also called αE; αTP
T1 sequence (A0R202 whole entry): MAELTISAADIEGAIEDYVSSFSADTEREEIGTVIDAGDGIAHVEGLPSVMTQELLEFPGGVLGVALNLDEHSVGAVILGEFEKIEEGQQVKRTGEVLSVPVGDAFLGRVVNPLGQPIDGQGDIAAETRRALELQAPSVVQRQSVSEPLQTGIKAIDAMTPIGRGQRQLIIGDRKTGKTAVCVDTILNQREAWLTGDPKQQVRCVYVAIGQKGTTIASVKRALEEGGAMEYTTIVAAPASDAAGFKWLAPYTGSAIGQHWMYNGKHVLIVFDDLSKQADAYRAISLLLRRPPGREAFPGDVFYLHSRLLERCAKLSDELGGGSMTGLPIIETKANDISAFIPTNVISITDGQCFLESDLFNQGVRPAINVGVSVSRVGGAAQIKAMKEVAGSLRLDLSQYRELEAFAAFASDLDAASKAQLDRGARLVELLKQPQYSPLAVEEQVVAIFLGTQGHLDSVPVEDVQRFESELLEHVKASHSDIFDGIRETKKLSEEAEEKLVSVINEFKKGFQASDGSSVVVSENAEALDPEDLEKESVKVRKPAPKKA

[2] = biological target: B1; conditions: both partners purified
[3] = biological target: B6; conditions: both partners purified
[4] = biological target: B3; conditions: both partners purified
[5] = biological target: B5; conditions: both partners purified
[6] = biological target: the molecule itself

B1: binds [1].

B2: ATP synthase β-subunit from Mycobacterium smegmatis (natural protein, UniProt A0R200 1-475, looked up)
chain: MTATAEKTAGRVVRITGPVVDVEFPRGSVPELFNALHAEITFGALAKTLTLEVAQHLGDSLVRCISMQPTDGLVRGVEVTDTGASISVPVGDGVKGHVFNALGDCLDDPGYGKDFEHWSIHRKPPAFSDLEPRTEMLETGLKVVDLLTPYVRGGKIALFGGAGVGKTVLIQEMINRIARNFGGTSVFAGVGERTREGNDLWVELADANVLKDTALVFGQMDEPPGTRMRVALSALTMAEFFRDEQGQDVLLFIDNIFRFTQAGSEVSTLLGRMPSAVGYQPTLADEMGELQERITSTRGRSITSMQAVYVPADDYTDPAPATTFAHLDATTELSRAVFSKGIFPAVDPLASSSTILDPAIVGDEHYRVAQEVIRILQRYKDLQDIIAILGIDELSEEDKQLVNRARRIERFLSQNMMAAEQFTGQPGSTVPLKETIEAFDKLTKGEFDHLPEQAFFLIGGLDDLAKKAESLGAKL
notes: ATP synthase subunit β, M. smegmatis mc2 155, encoded in the entire atp operon; modelled in substate S1a (PDB 7NJK): βE 8-471; βTP 7-475; βDP 8-475; Three copies in the enzyme (α3β3); also called βE; βTP
B2: binds [1].

B3: binds [2].

B4: ATP synthase b′-subunit from Mycobacterium smegmatis with a C-terminal His10-tag (natural protein, UniProt A0R204 1-170, looked up)
chain: MGEFSATILAASQAAEEGGGGSNFLIPNGTFFAVLIIFLIVLGVISKWVVPPISKVLAEREAMLAKTAADNRKSAEQVAAAQADYEKEMAEARAQASALRDEARAAGRSVVDEKRAQASGEVAQTLTQADQQLSAQGDQVRSGLESSVDGLSAKLASRILGVDVNSGGTQ
notes: ATP synthase subunit b′, M. smegmatis mc2 155, encoded in the entire atp operon; modelled in substate S1a (PDB 7NJK): 22-166; residues 1 to 21 had no density but are present in the assembled enzyme; One copy in the enzyme; part of the peripheral stalk; No removal of the tag is told; also called b-subunit (in some sentences)
B4: binds [3]; binds [4]; binds [2]. B4: binds [1].

B5: binds [3].

B6: binds [1].

B7: ATP synthase c-subunit from Mycobacterium smegmatis (natural protein, UniProt A0R205 1-86, looked up)
chain: MDLDPNAIITAGALIGGGLIMGGGAIGAGIGDGIAGNALISGIARQPEAQGRLFTPFFITVGLVEAAYFINLAFMALFVFATPGLQ
notes: ATP synthase subunit c, M. smegmatis mc2 155, encoded in the entire atp operon; modelled in substate S1a (PDB 7NJK): 3-86 in all nine copies; Nine copies form the c9-ring of the rotor; in the rows with a and ε the subunit stands in that ring; also called c9-ring; c-ring
B7 was tested, and the binding result [4] was “binds”, the binding result [5] was “binds” and the “stoichiometry N” value [6] was 9.
